# Test results from patent US20190161551A1 (Regeneron, published 2019).
# Like-named read-outs stand apart in the source and are kept apart here.
# B1: M2aM14179N (antibody, mouse IgG2a, kappa, V domains shown)
# VH: EVQLQQSGPELVKPGASVKISCKASGYTLTDYYMNWVKQSHGKSLEWIGDINPNNGGTSYNQKFKGKATLTVDKSSSTAYMELRSLTSEDSAVYYCARGAYYSNYFDYWGQGTTLTVSS
# VL: DIVMSQSPSSLAVSAGEKVTMSCKSSQSLLNSRTRKNYLAWYQQKPGQSPKLLIYWASTRESGVPDRFTGSGSGTDFTLTISSVQAEDLAVYYCKQSYILFTFGSGTQLEIKR
# notes: Anti-mouse TrkB antibody from hybridoma, mouse IgG2a Fc; also called surrogate anti-mouse TrkB antibody
# B2: H4H9780P (antibody, human IgG4 S228P, kappa, V domains shown)
# VH: QVQLVESGGGVVQPGRSLRLSCAASGFSFSSFGMHWVRQAPGKGLEWVSVISYDGINTYYTDSVKGRFTISRDNSKNTLYLQMNGLRAEDTALYYCVQGSIGTVFEYWGQGTLVTVSS
# VL: DIQMTQSPSSLSASVGDRVTITCRASQGISNYLAWYQQKPGKVPKLLIYAASTLQSGVPSRFGGSGSGTDFTLTISSLQPEDVATYYCQKYTSAPFTFGPGTKVDIKR
# notes: Fully human anti-human TrkB agonist antibody, human IgG4 Fc; also called H4H9780P-L1
# B3: H4H9814P (antibody, human IgG4 S228P, kappa, V domains shown)
# VH: EVQLVESGGGLVQPGGSLKLSCTASGFTFSGSVIHWVRQASGKGLEWIGRIRNKANSYATAYGASVTGRFTISRDDSKNTAYLQMNSLKTEDTAVYYCTFPGVVGRGGFDYWGQGTLVTVSS
# VL: DIVMTQSPDSLAVSLGEGATINCMSSQSVLFSSNNKNYLAWYQQKPGQPPKLLFYWASTRESGVPDRFGGSGSGTDFSLTINSLQTEDVAVYYCLQYYSIPWTFGQGTKVEIKR
# notes: Fully human anti-human TrkB agonist antibody, human IgG4 Fc; also called H4H9814P-L1
# B4: H1M8037C (antibody, mouse IgG1, kappa, V domains shown)
# VH: QVQLVQSGAEVKKPGASVKVSCKASGYTFTNYDIIWVRQAPGQGLEWMGYINPYNDGTKYNEKFKGRVTMTRDTSTSTVYMELSSLRSEDTAVYYCARLLKYRRFRYYAIDYWGQGTTVTVSS
# VL: DIQMTQSPSSLSASVGDRVTITCRTSENVYSNLAWYQQKPGKAPKLLIYAASNLQSGVPSRFSGSGSGTDYTFTISSLQPEDIATYYCQHFWGSPFTFGQGTKLEIKR
# notes: captured by anti-mFc in SPR; also called Comparator; comparator anti-TrkB monoclonal antibody
# B5: M2aM14173N (antibody, mouse IgG2a, kappa, V domains shown)
# VH: NVSLVESGGGSVKPGGSLQLSCAASGFTFSSSAMSWIRQTPEMRLEWVATISDRGSYTYYPDSVEGRFTISRDNAKNILYLQMSHLMSEDTAMYYCARGKGEKAYYTAFFAYWGQGSLVTVSA
# VL: DIQMTQSPASLSASVGETVTITCRASENIYSYLAWYQQKPGKSPHLLVHNAETLAEGVPSRFSGSGSGPQFSLKINSLQPGDSGTYYCQHHYSSPWTFGGGTKLEIKR
# notes: as for B1
# B6: H4H9816P2 (antibody, human IgG4 S228P, kappa, V domains shown)
# VH: EVQLVESGGGLVQPGGSLTLSCAASGFNFRDYEMIWVRQTPGKGLEWISYISNSGYTIYYADSVKGRFTISRDNARNSIYLQVNSLRAEDTAVYYCSRRTTMIRGIRAYYYYGLDVWGQGTTVTVSS
# VL: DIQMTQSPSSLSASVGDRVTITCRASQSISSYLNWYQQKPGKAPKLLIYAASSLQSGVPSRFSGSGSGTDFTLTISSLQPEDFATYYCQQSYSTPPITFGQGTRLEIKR
# notes: Fully human anti-human TrkB agonist antibody, human IgG4 Fc; also called H4H9816P-L1
# Tests used:
# mouse TrkB.hFc [1] = target: T1, mouse TrkB.hFc (mouse); test: BLI Octet, captured mTrkB.hFc, 300 nM mAb (BDNF run)
# T1 construct: also called mTrkB.hFc; mTrkB-hFc
# T1 sequence (chain, as listed by the source limits assumed): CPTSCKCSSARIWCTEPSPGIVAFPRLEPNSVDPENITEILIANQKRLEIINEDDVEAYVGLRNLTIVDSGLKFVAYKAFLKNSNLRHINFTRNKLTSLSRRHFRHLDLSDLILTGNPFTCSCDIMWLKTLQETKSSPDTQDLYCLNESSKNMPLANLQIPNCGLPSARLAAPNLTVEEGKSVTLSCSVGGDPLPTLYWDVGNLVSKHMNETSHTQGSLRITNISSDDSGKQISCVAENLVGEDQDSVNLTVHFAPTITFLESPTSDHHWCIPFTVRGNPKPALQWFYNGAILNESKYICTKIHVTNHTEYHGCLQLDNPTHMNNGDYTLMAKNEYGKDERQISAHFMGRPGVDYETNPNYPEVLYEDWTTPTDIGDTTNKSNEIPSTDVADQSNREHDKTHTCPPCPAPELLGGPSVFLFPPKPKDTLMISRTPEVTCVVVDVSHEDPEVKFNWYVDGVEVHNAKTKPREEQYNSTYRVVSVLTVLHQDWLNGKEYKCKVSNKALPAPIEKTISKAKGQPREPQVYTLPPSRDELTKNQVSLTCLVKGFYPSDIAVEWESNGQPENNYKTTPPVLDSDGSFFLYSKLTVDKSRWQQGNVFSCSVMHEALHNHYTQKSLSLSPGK
# Protocol: Blocking of BDNF or NT-4 from binding to TrkB by anti-human TrkB or anti-mouse TrkB antibodies was evaluated using a real-time bio-layer interferometry (BLI) based Octet HTX instrument. The entire study was performed in 10 mM HEPES pH 7.4, 300 mM NaCl, 3 mM EDTA, 1 mg/mL BSA, 0.02% NaN3 and 0.05% v/v Surfactant Tween-20 (HBS-EBT running buffer) at 25° C. All the samples were dispensed in a 384 tilted well plate and the plate was placed on the orbital shaker with the shake speed of 1000 rpm. hTrkB.mFc was captured on anti-mFc (AMC) Octet sensors while hTrkB.hFc or mTrkB.hFc were captured on anti-hFc (AHC) Octet sensors by dipping in wells containing 10 μg/mL of TrkB reagents for 2 minutes. hTrkB.mFc or hTrkB.hFc captured Octet biosensors were saturated by dipping in wells containing 300 nM of different TrkB mAbs for 4 minutes followed by dipping Octet biosensors in wells containing 20 nM of BDNF, hNT-4, or mNT-4 for 2 minutes. Binding of BDNF, hNT-4, or mNT-4 to the complex of TrkB and different TrkB mAbs was determined using Scrubber 2.0c analysis software.
# [2] = target: T2, mouse TrkB extracellular domain fused to the transmembrane and cytoplasmic domains of human TrkB, expressed … (mouse; human, UniProt Q16620 431-822, limits assumed); test: cell-based or functional assay
# T2 sequence (Q16620 other isoform, or with tags, fused parts or gaps limits assumed, form in doubt): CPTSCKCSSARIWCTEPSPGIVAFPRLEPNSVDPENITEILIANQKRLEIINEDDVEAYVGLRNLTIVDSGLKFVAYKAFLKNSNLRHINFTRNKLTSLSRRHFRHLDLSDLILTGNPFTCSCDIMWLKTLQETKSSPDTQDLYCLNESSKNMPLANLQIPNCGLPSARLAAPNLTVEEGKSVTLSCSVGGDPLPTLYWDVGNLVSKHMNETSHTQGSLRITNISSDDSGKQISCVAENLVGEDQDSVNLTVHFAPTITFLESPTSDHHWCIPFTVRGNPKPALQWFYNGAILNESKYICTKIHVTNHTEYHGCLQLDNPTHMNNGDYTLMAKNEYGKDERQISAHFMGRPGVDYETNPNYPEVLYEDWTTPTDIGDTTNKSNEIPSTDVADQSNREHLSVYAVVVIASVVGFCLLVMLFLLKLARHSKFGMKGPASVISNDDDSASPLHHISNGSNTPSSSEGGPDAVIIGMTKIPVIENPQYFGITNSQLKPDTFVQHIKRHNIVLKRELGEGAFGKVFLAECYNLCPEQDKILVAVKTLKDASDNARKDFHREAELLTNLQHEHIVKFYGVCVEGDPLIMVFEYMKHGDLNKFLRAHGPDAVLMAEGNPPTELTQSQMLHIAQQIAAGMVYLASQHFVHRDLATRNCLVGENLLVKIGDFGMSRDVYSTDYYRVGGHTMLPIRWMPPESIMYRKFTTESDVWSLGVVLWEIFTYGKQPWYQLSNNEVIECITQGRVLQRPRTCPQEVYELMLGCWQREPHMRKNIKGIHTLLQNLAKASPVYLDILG
# [3] = target: T3, human TrkB expressed on HEK293/SRE-Luc/hTrkB cells (human, UniProt Q16620 32-822); test: cell-based or functional assay
# T3 sequence (Q16620 32-822): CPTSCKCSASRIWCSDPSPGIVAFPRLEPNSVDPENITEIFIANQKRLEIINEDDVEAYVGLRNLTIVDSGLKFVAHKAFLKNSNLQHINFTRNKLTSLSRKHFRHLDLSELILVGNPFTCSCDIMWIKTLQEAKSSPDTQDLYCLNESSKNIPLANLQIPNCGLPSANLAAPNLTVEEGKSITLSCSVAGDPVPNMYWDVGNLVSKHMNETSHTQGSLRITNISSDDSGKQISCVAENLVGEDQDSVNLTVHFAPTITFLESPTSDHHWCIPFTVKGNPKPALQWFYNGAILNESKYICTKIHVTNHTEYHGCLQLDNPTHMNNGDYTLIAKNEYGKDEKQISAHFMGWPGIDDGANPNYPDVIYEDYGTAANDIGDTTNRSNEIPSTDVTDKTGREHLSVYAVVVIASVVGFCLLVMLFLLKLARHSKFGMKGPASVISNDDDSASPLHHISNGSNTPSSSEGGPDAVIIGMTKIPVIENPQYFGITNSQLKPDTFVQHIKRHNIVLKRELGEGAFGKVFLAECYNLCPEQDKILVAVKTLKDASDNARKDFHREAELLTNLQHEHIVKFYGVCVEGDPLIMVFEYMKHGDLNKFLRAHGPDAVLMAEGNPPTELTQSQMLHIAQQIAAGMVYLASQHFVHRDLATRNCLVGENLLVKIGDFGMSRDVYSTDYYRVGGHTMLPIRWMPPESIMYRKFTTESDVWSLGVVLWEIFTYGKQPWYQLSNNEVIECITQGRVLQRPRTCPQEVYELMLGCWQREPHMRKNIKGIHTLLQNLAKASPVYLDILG
# mouse TrkB.hFc [4] = target: T1, mouse TrkB.hFc; test: BLI Octet, captured mTrkB.hFc, 300 nM mAb, no ligand
# Protocol: (§1) Blocking of anti-human TrkB or anti-mouse TrkB antibodies from binding to TrkB by BDNF or NT-4 was evaluated using a real-time bio-layer interferometry (BLI) based Octet HTX instrument. The entire study was performed in 10 mM HEPES pH 7.4, 300 mM NaCl, 3 mM EDTA, 1 mg/mL BSA, 0.02% NaN3 and 0.05% v/v Surfactant Tween-20 (HBS-EBT running buffer) at 25° C. All the samples were dispensed in a 384 tilted well plate and the plate was placed on the orbital shaker with the shake speed of 1000 rpm. hTrkB.mFc was captured on anti-mFc (AMC) Octet sensors while hTrkB.hFc or mTrkB.hFc were captured on anti-hFc (AHC) Octet sensors by dipping in wells containing 10 μg/mL of TrkB reagents for 2 minutes. hTrkB.mFc or hTrkB.hFc captured Octet biosensors were saturated by dipping in wells containing 20 nM of BDNF, hNT-4, or mNT-4 for 2 minutes followed by dipping Octet biosensors in wells containing 300 nM of different TrkB mAbs for 4 minutes. Binding of TrkB mAbs to the complex of TrkB and BDNF, hNT-4, or mNT-4 was determined using Scrubber 2.0c analysis software.
# [5] = target: T2, mouse TrkB extracellular domain fused …; test: cell-based or functional assay; remark: listed apart in the source
# [6] = target: T3, human TrkB expressed on …; test: cell-based or functional assay; remark: listed apart in the source
# [7] = target: T4, human TrkB extracellular domain expressed with a C-terminal mouse IgG2a Fc tag (human); test: BLI Octet, captured hTrkB.mFc, 300 nM mAb, no ligand
# T4 construct: also called hTrkB-mFc; hTrkB.mFc
# T4 sequence (chain, as listed by the source limits assumed): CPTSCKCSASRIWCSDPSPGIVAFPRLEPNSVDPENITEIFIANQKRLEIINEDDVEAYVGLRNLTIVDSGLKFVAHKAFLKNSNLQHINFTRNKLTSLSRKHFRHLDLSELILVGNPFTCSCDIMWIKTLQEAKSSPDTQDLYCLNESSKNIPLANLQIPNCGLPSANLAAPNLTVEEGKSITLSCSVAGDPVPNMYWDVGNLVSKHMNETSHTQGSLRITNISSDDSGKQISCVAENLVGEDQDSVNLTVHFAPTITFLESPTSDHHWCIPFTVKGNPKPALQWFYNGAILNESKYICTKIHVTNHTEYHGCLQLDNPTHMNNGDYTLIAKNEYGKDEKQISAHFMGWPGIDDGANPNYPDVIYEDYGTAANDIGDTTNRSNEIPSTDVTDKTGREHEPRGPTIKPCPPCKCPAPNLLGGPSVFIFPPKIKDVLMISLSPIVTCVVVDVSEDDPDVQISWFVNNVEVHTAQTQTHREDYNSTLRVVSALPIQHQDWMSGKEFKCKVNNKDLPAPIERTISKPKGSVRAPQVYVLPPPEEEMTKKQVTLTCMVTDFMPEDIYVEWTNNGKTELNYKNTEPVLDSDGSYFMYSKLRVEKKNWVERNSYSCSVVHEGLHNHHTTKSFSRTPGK
# Protocol: as §1
# [8] = target: T5, human TrkB extracellular domain (aa Cys32-His430) expressed with the Fc portion of human IgG1 at the … (human); test: competition ELISA, 500 pM hTrkB-hFc pre-mixed with mAb, plate-coated hNT-4
# T5 construct: also called hTrkB-hFc; hTrkB.hFc
# T5 sequence (chain, as listed by the source limits assumed): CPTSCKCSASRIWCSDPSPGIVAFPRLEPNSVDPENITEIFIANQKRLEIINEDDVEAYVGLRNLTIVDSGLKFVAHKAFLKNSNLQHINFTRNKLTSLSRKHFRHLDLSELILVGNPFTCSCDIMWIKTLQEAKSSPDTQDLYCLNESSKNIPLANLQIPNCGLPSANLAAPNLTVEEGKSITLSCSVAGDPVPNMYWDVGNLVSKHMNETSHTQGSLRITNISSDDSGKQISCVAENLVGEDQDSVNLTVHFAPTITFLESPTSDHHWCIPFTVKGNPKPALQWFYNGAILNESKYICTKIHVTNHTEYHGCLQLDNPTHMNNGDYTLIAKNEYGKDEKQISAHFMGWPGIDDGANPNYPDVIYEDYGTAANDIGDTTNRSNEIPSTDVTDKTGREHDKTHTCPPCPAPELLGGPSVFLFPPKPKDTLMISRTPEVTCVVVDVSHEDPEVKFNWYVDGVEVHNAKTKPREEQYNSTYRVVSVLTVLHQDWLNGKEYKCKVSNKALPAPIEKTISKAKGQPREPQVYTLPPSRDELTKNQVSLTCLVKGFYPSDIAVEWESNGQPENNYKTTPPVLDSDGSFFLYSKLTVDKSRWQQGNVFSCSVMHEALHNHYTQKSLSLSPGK
# Protocol: Experiments were carried out using the following procedure. Human BDNF or NT-4 were separately coated at a concentration of 0.5 μg/mL or 2 μg/mL, respectively, in PBS on a 96-well microtiter plate overnight at 4° C. […] Blocking solution and dilution buffer contained 5% (w/v) solution of BSA in PBS for assay with BDNF coat, or 0.5% (w/v) solution of BSA in PBS for assay with NT-4 coat. On separate microtiter plates, a constant amount of 500 pM of hTrkB-hFc protein was added to serial dilutions of antibodies with final concentrations ranging from 1.7 pM to 100 nM, and solutions with no antibody present. (The constant concentration of hTrkB-hFc for antibody inhibition assays was selected from the approximate midway point within the linear portion of individual binding curves of hTrkB-hFc to plate-coated hBDNF or hNT-4). After one hour incubation at room temperature, antibody-protein complexes with 500 pM constant concentration of hTrkB-hFc protein were transferred to microtiter plates coated with hBDNF or hNT-4. After one hour incubation at room temperature, the wells were washed, and plate-bound hTrkB-hFc was detected with anti-human Fcγ fragment specific goat polyclonal antibodies conjugated with horseradish peroxidase (JacksonImmunoResearch). The plate was then developed using TMB substrate solution (BD Biosciences) according to manufacturer's recommendation and absorbance at 450 nm was measured on a Victor plate reader (PerkinElmer™).
# The ability of anti-TrkB antibodies to block TrkB binding to BDNF or NT-4 was assessed using two competition sandwich ELISAs. Human TrkB-hFc binding to hBDNF or hNT-4 coated on 96-well microtiter plates, in the presence of serially diluted antibodies or no antibody controls, were detected with HRP-conjugated anti-human Fcγ fragment specific goat polyclonal antibodies. IC₅₀ values were calculated and used as the potency indicator of antibody blocking hTrkB-hFc binding to hBDNF or hNT-4. In addition, the maximum blockade of 500 pM hTrkB-hFc with each antibody at the highest tested concentration was calculated and compared.
# [9] = target: T4, human TrkB extracellular domain …; test: BLI Octet, captured hTrkB.mFc, 300 nM mAb (BDNF run)
# Protocol: as §1
Binder,mAb Binding (nm) (mouse TrkB.hFc [1]),"Activation (%), SRE-luciferase, 100 pM BDNF [2]","Activation (%), SRE-luciferase, No BDNF [2]","EC50 (M), SRE-luciferase, 100 pM BDNF [2]","EC50 (M), SRE-luciferase, No BDNF [2]","Activation (%), SRE-luciferase, 100 pM BDNF [3]","Activation (%), SRE-luciferase, No BDNF [3]",antibody Binding (nm) (mouse TrkB.hFc [4]),"Activation (%), SRE-luciferase, 100 pM BDNF [5]","Activation (%), SRE-luciferase, No BDNF [5]","Activation (%), SRE-luciferase, 100 pM BDNF [6]","Activation (%), SRE-luciferase, No BDNF [6]","EC50 (M), SRE-luciferase, 100 pM BDNF [6]","EC50 (M), SRE-luciferase, No BDNF [6]",antibody Binding (nm) [7],% Blockade with 100 nM antibody [8],IC50 [8],mAb Binding (nm) [9],other results
B1,0.42 nm,75%,87%,2.1e-11 M,3.4e-11 M,52%,4%,0.42 nm,,,,,,,,,,,
B2,,,,,,,,,55%,0%,77%,88%,7.6e-11 M,8.2e-11 M,0.18 nm,80%,0.18 nM,0.18 nm,
B3,,,,,,,,,54%,0%,80%,92%,4.9e-11 M,3.5e-11 M,0.18 nm,38%,,0.18 nm,
B4,0.42 nm,69%,85%,4.2e-11 M,4.3e-11 M,79%,80%,0.42 nm,69%,85%,79%,78%,1.1e-10 M,7.6e-11 M,,95%,0.045 nM,,"EC50 (M), SRE-luciferase, 100 pM BDNF [5]: 4.2e-11 M; EC50 (M), SRE-luciferase, No BDNF [5]: 4.3e-11 M; EC50 (M), SRE-luciferase, 100 pM BDNF [3]: 1.1e-10 M; EC50 (M), SRE-luciferase, No BDNF [3]: 5.7e-11 M"
B5,0.42 nm,74%,94%,1.7e-11 M,3.6e-11 M,59%,2%,0.42 nm,,,,,,,,,,,
B6,,,,,,,,,58%,0%,78%,90%,4.5e-11 M,6.3e-11 M,0.19 nm,-123%,,0.19 nm,
